We go through four molecules from patent US20230292718A1, “METHOD FOR CONSTRUCTING MODEL OF VITILIGO AND THE USE OF THE MODEL” (NATIONAL INSTITUTE OF BIOLOGICAL SCIENCES, BEIJING, priority 2020, published 2023).

The subject of assay [1] is activated CD8+OT1 T cells. Briefly: T cell transwell migration assay with recombinant chemokines. The class given is cell-based, mouse. Conditions: recombinant protein at increasing concentrations in lower chamber, 3 hr incubation. As for the experimental part: Transwell migration of lymphocytes was performed with mature CTLs and concentrated fibroblast conditioned medium. In brief, splenocytes isolated from OT-1 mice were stimulated with OVA257-264 for 3 days in the presence of 10 ng/mL IL2. Cells were centrifuged and cultured in fresh medium containing 10 ng/mL IL2 for 1 more day, after which most of the cells in the culture were CTLs. To measure CD8+ T cell cytotoxicity, B16F10 expressing OVA peptide was mixed in the killing medium at the ratios of 1:1. After 6 hs, the cytotoxic efficiency was confirmed by B16F10 cell survival.
To further identify the secreted factors involved in this process, we first performed RNA-seq analysis of fibroblasts from WT and IFNGR1 KO mice at Day 33 after vitiligo induction, alongside WT mice without vitiligo induction (FIG. 6C). […] Next we compared the single cell transcriptome data of progressive state vitiligo patients fibroblasts and healthy donors fibroblasts. Unsupervised clustering performed by spectral clustering method separates fibroblasts into 4 sub-clusters in healthy donors and 5 sub-clusters in progressive state vitiligo patients (FIG. 6D). […] Comparison of the human and mouse vitiligo fibroblasts specific secreted protein gene signatures, we identified 29 overlapped genes. Among them 11 are conserved major histocompatibility complex genes and 6 are chemokines, including CCL5, CCL8, CCL19, CXCL3, CXCL9 and CXCL10 (FIG. 6F-6G). […]
RFP expressing WT or IFNGR1 KO fibroblasts were intradermally injected into the tail skin of IFNGR1 KO mice. After vitiligo induction on the host mice, CD8+ T cell infiltration was analyzed by whole-mount immunofluorescent staining and quantification. […] Cells were collected from both chambers and counted by flow cytometry after 3 hr incubation. […] After 3 hr incubation, CD8+ T cell migration index was calculated by dividing the number of migrated cells (cells in lower chamber) using the number of migrated plus unmigrated cells (cells in upper chamber+lower chamber).

Assay [2] deals with 3T3 fibroblasts. Briefly: qPCR analysis of shRNA effect in blocking IFN-γ response (GBP2 reporter). The class given is cell-based, mouse. Conditions: 6 hrs IFN-γ treatment, cells expressing scrambled shRNA. On the technique in general: Quantitative PCR measures a nucleic acid by following its amplification.
The test system of assay [3] is primary mouse fibroblasts. Kind of assay: QPCR analysis of IFN-γ treated primary fibroblasts using target gene CXCL10 as readout. The class given is cell-based. As for the experimental part:
Total RNAs were isolated from FACS-sorted cells with Trizol followed by extraction using Direct-Zol RNA mini-prep Kit (Zymo research). For cDNA synthesis, equal amounts of RNA were reverse-transcribed by Oligo-dT (Vazyme, R222-01). Expression levels were normalized to the expression of PPIB. Real time PCR was conducted using a CFX96TM Real-Time system (Bio-RAD) with Power SYBRR Green PCR Master Mix (Life Technologies). All primer pairs were designed for the same cycling conditions: 10 min at 95° C. for initial denaturing, 40 cycles of 10 s at 95° C. for denaturing, 30 s at 62° C. for annealing, and 10 s at 65° C. for extension. The primers were designed to produce a product spanning exon-intron boundary in each of the target genes.
Primary fibroblasts isolated from WT or IFNGR1 KO newborn mice dorsal skin were infected with lentivirus expressing shRNA and RFP in vitro. The RFP+ fibroblasts were then intradermally injected into P56 mice tail skin. The presence and location of injected cells were examined 2 weeks later. […] Primary mouse fibroblasts were treated with IFN-γ of increasing dosage and duration time in vitro. Treatment time ranges from 6 hrs to 48 hrs; and IFN-γ concentration gradients range from 5 U/mL to 200 U/mL. […] Primary mouse fibroblasts were treated with increasing dosage of IFN-γ for 6 hrs in vitro. IFN-γ concentration gradients range from 5 U/mL to 1000 U/mL. […]

B1: CCL19: recombinant chemokine protein added to lower chamber of transwell (protein, UniProt O70460 26-108, looked up)
C-C motif chemokine 19: GANDAEDCCLSVTQRPIPGNIVKAFRYLLNEDGCRVPAVVFTTLRGYQLCAPPDQPWVDRIIRRLKKSSAKNKGNSTRRSPVS
B1: in assay [1], the “CD8+ T cell migration (migration index)” value was “induce CD8+ T cell migration in a dosage dependent manner”.

B2: CXCL10: recombinant chemokine protein added to lower chamber of transwell (protein, UniProt P17515 22-98, looked up)
C-X-C motif chemokine 10: IPLARTVRCNCIHIDDGPVRMRAIGKLEIIPASLSCPRVEIIATMKKNDEQRCLNPESKTIKNLMKAFSQKRSKRAP
In the case of B2, the “CD8+ T cell migration (migration index)” value in assay [1] is on record as “induce CD8+ T cell migration in a dosage dependent manner”.

B3: CXCL9: recombinant chemokine protein added to lower chamber of transwell (protein, UniProt P18340 22-126, looked up)
C-X-C motif chemokine 9: TLVIRNARCSCISTSRGTIHYKSLKDLKQFAPSPNCNKTEIIATLKNGDQTCLDPDSANVKKLMKEWEKKISQKKKQKRGKKHQKNMKNRKPKTPQSRRRSRKTT
Turning to B3, in assay [1], the “CD8+ T cell migration (migration index)” value is recorded as “induce CD8+ T cell migration in a dosage dependent manner”.

B4: IFN-γ: recombinant interferon gamma used to treat fibroblasts in vitro (protein, UniProt P01580 23-155, looked up)
Interferon gamma: HGTVIESLESLNNYFNSSGIDVEEKSLFLDIWRNWQKDGDMKILQSQIISFYLRLFEVLKDNQAISNNISVIESHLITTFFSNSKAKKDAFMSIAKFEVNNPQVQRQAFNELIRVVHQLLPESSLRKRKRSRC
On to B4, for which the GBP2 expression level entry in assay [2] is listed as “significantly increased”. In assay [3] (6 hrs in vitro, gradient 5 U/mL to 1000 U/mL), the “IFN-γ concentration inducing maximum activation (CXCL10 expression level)” value was found to be 1000 U/mL. The CXCL10 expression result in assay [3] (IFN-γ 5 U/mL to 200 U/mL, 6 hrs to 48 hrs) is listed as “induced by IFN-γ in a dosage dependent manner”.
